We go through 2 molecules from patent US20220064295A1 (ITABMED HK, published 2022).

Holding throughout (assay): BLI (Octet), antigen-Fc captured on anti-human Fc (AHC) biosensor, MSAP in solution
For orientation: BLI is a label-free optical method that tracks binding on a fibre tip over time.

For experiment [1], the target named is T1, Recombinant Human CD19 Fc Chimera (R&D Systems, Inc) (human, UniProt P15391 20-291).
T1 construct: Bought reagent; also called huCD19.Fc; human CD19 antigen; Fc part of the bought chimera not given
T1 sequence (looked up): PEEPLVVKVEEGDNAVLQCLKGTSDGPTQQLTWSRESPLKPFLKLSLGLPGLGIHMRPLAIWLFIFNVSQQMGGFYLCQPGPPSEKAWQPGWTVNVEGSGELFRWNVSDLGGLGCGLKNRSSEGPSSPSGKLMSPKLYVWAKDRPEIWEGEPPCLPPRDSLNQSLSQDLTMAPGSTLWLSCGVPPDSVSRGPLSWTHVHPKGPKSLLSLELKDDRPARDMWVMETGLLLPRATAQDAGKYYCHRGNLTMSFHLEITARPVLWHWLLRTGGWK
On the procedure: (§1) The expression of the CD3 antigen constructs has been described in U.S. Pat. No. 8,846,042. The CD3 antigen constructs or the CD19 antigen (Cynomolgus/Rhesus CD19 Protein (Fc Tag), Sino Biological. Inc; Recombinant Human CD19 Fc Chimera, R&D Systems. Inc) were diluted to 0.02 mg/mL with dilution (PBS), and then immobilized on an anti-Human Fc capture (AHC) biosensor. […] Control wells containing PBS only were also set up. The detection results were analyzed using ForteBio Data Acquisition and ForteBio Data Analysis software.

The target in experiment [2] is T2, cynomolgus CD3 antigen construct cynoCD3εAA 1-27.Fc (cynomolgus monkey; human, UniProt Q95LI5 22-48).
T2 construct: range 1-27; not shown: human IgG Fc
T2 chain (looked up): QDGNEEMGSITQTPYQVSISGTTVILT
On the procedure:
as §1

For experiment [3], the target named is T3, Cynomolgus/Rhesus CD19 Protein (Fc Tag) (Sino Biological, Inc) (cynomolgus monkey (Cynomolgus/Rhesus), UniProt F7F486 20-292 (rhesus entry)).
T3 construct: Bought reagent; also called cynoCD19.Fc; cynomolgus CD19 antigen
T3 sequence: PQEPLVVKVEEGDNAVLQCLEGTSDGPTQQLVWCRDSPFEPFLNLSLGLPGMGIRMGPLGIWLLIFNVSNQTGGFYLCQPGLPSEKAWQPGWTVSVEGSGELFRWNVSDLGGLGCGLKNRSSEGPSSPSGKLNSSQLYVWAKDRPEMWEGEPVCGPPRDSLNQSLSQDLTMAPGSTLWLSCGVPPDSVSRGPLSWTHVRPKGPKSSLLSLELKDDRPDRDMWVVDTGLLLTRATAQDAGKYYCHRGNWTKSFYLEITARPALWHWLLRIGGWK
As for the experimental part:
as §1

B1: ITAB2009 CD19×CD3 MSAP (bispecific antibody)
chain 1: EVQLVESGGGLVQPGGSLRLSCAASGFTFNTYAMNWVRQAPGKGLEWVARIRSKYNNYATYYADSVKDRFTISRDDSKNTLYLQMNSLRAEDTAVYYCVRHGNFGNSYVSWFAYWGQGTMVTVSSGGGGSGGGGSGGGGSQAVVTQEPSLTVSPGGTVTLTCRSSTGAVTTSNYANWVQQKPGQAPRGLIGGTNKRAPGTPARFSGSLLGGKAALTLSGVQPEDEAEYYCALWYSNLWVFGGGTKLTVLSGGGGSQVQLVQSGPELIKPGGSVKMSCKASGYTFTSYVMHWVRQKPGQGLEWIGYINPYNDGTKYNEKFKGRATLTSDKSSSTAYMELSSLRSEDSAVYYCARGTYYYGSRVFDYWGQGTTVTVSSASTKGPSVFPLAPSSKSTSGGTAALGCLVKDYFPEPVTVSWNSGALTSGVHTFPAVLQSSGLYSLSSVVTVPSSSLGTQTYICNVNHKPSNTKVDKKVEPKSCPPCS
chain 2: DVVMTQSPSSIPVTLGESVSISCRSSKSLQNVNGNTYLYWFQQRPGQSPQLLIYRMSNLNSGVPDRFSGSGSGTDFTLRISGVEPEDVGVYYCMQHLEYPITFGAGTKLEIKRTVAAPSVFIFPPSDEQLKSGTASVVCLLNNFYPREAKVQWKVDNALQSGNSQESVTEQDSKDSTYSLSSTLTLSKADYEKHKVYACEVTHQGLSSPVTKSFNRGECPPCS
notes: also called CD19×CD3 MSAP ITAB2009; bivalent format ITAB2009
As for B1, the dissociation constant (Kd) (usually the concentration at which binding is half-saturated) is 18.2 nM in experiment [1], 12.9 nM in experiment [2] and 29.6 nM in experiment [3].

B2: ITAB2007 CD19×CD3 MSAP (bispecific antibody)
chain 1: DVVMTQSPSSIPVTLGESVSISCRSSKSLQNVNGNTYLYWFQQRPGQSPQLLIYRMSNLNSGVPDRFSGSGSGTDFTLRISGVEPEDVGVYYCMQHLEYPLTFGAGTKLEIKGGGGSGGGGSGGGGSQVQLVQSGPELIKPGGSVKMSCKASGYTFTSYVMHWVRQKPGQGLEWIGYINPYNDGTKYNEKFKGRATLTSDKSSSTAYMELSSLRSEDSAVYYCARGTYYYGSRVFDYWGQGTTVTVSSGGGGSEVQLVESGGGLVQPGGSLRLSCAASGFTFNTYAMNWVRQAPGKGLEWVARIRSKYNNYATYYADSVKDRFTISRDDSKNTLYLQMNSLRAEDTAVYYCVRHGNFGNSYVSWFAYWGQGTMVTVSSASTKGPSVFPLAPSSKSTSGGTAALGCLVKDYFPEPVTVSWNSGALTSGVHTFPAVLQSSGLYSLSSVVTVPSSSLGTQTYICNVNHKPSNTKVDKKVEPKSCPPCS
chain 2: DVVMTQSPSSIPVTLGESVSISCRSSKSLQNVNGNTYLYWFQQRPGQSPQLLIYRMSNLNSGVPDRFSGSGSGTDFTLRISGVEPEDVGVYYCMQHLEYPLTFGAGTKLEIKGGGGSGGGGSGGGGSQVQLVQSGPELIKPGGSVKMSCKASGYTFTSYVMHWVRQKPGQGLEWIGYINPYNDGTKYNEKFKGRATLTSDKSSSTAYMELSSLRSEDSAVYYCARGTYYYGSRVFDYWGQGTTVTVSSGGGGSQAVVTQEPSLTVSPGGTVTLTCRSSTGAVTTSNYANWVQQKPGQAPRGLIGGTNKRAPGTPARFSGSLLGGKAALTLSGVQPEDEAEYYCALWYSNLWVFGGGTKLTVLGQPKAAPSVTLFPPSSEELQANKATLVCLISDFYPGAVTVAWKADSSPVKAGVETTTPSKQSNNKYAASSYLSLTPEQWKSHRSYSCQVTHEGSTVEKTVAPTECPPCS
notes: One anti-CD19 scFv is fused at the N-terminus of the VH and a second at the N-terminus of the VL of an anti-CD3 Fab fragment; also called CD19×CD3 MSAP ITAB2007; bispecific trivalent ITAB2007
Turning to B2, the Kd in experiment [1] is 0.891 nM; in experiment [2], 18.8 nM; in experiment [3], 8.91 nM.
